These results are taken from paper PMC8886820.

Assay [1] addresses MBP-Spc105(10xMEED)-TST (D. melanogaster). In words: pull-down.
Assay [2] concerns the target phospho-10xMEED (MBP-Spc105(10xMEED)-TST phosphorylated by activated Sli15(INBOX)-Ipl1) (D. melanogaster). In words: pull-down.
The target in assay [3] is Taxol-stabilized microtubules (UniProt P02550). In words: TIRF microscopy of EGFP-tagged protein on surface-held microtubules.
Assay [4] has the same target. Described as above. This is another data set of the same source.

Read-outs that look alike come from different tables or passages of the source.

Sequence of Taxol-stabilized microtubules (P02550 whole entry, chain 1 of 2): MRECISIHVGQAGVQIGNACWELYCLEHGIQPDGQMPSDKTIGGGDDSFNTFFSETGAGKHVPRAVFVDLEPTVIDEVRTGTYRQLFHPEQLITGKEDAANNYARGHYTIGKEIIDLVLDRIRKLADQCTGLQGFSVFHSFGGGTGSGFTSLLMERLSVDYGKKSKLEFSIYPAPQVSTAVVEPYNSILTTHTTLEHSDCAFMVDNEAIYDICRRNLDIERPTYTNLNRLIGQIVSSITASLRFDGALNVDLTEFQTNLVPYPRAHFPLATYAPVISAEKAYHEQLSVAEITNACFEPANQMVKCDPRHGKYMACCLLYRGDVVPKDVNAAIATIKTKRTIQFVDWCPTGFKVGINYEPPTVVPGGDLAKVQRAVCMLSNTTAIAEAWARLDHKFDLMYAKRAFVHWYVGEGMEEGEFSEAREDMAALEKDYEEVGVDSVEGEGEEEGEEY
Sequence of Taxol-stabilized microtubules (P02554 whole entry, chain 2 of 2, further chain): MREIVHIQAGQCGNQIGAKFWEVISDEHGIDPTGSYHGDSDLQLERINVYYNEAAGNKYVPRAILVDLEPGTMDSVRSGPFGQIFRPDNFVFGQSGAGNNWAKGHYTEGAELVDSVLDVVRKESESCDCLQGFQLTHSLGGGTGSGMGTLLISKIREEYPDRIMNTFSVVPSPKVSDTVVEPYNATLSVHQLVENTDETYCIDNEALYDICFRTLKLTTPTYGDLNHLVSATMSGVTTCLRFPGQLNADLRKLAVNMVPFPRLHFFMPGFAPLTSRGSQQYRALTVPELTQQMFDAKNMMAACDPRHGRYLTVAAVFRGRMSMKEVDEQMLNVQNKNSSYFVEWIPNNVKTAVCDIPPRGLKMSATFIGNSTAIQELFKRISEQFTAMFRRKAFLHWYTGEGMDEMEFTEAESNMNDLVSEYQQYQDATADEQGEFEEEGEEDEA

In turn, Bub3-EGFP (natural protein) registered a fold Bub3 bound against the MBP-TST control in assay [1] of 2 fold. For the same substance, the fold Bub3 bound against the unphosphorylated MBP-TST control in assay [2] came out at 30 fold.
Consider “Spc105-A(1-400)-EGFP (domain or fragment)”, for which the percent of the MT binding of Spc105-B(1-400) in assay [3] was less than 50%.
Regarding “Spc105-B(1-400)-EGFP (domain or fragment)”, the percent of the MT binding of Spc105-B(1-400) in 150 mM KCl in assay [4] was 12.5%. For the same substance, in assay [3], the percent of the MT binding of Spc105-B(1-400) in 150 mM KCl amounted to 14.6% and the percent reduction of MT binding against Spc105-B(1-400) without 1,6-HD was 40%.
Regarding “Spc105-B(1-400)-EGFP phosphorylated with Sli15(INBOX)-Ipl1 (domain or fragment)”, in assay [3], the percent of the MT binding of unphosphorylated Spc105-B(1-400) in 150 mM KCl was determined as 22.1%.
